According to PMC4338336:

What was measured:
Msl5-(KH-QUA2) [1] = target: T1, Msl5-(KH-QUA2) (Saccharomyces cerevisiae, UniProt Q12186 144-271); assay: EMSA
T1 sequence: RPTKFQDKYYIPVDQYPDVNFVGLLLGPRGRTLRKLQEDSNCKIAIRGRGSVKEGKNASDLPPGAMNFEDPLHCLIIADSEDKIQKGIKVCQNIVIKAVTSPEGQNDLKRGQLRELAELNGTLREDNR

Msl5-(KH-QUA2) [2] = target: T1, Msl5-(KH-QUA2); assay: EMSA; remark: listed apart in the source

UAUACUAACAA (ssRNA) [11-mer branchpoint RNA (WT)]
apparent K (half saturation) (Msl5-(KH-QUA2) [1]): 140 nM

UAUACCAACAA (ssRNA) [11-mer RNA U4C]
binding result (Msl5-(KH-QUA2) [2]): no binding

UAUACGAACAA (ssRNA) [11-mer RNA U4G]
binding result (Msl5-(KH-QUA2) [2]): no binding

UAUACUAGCAA (ssRNA) [11-mer RNA A6G]
binding result (Msl5-(KH-QUA2) [2]): no binding

UAUACUAUCAA (ssRNA) [11-mer RNA A6U]
binding result (Msl5-(KH-QUA2) [2]): no binding
